Laboratory results: article PMC6218445, “Pyruvate kinase M2 regulates homologous recombination-mediated DNA double-strand break repair” (Cell Research, 2018)

Target: T1, pyruvate kinase M2 (human (endogenous in U87), UniProt P14618 1-531)
T1 construct: pyruvate kinase M2 (PKM2), endogenous in the human glioblastoma cell line U87; In irradiated cells part of the nuclear PKM2 is phosphorylated at T328 by ATM; The lysates hold a mixture; also called PKM2; source: endogenous, U87 lysate
Assay: not stated; association of PKM2 and CtIP after irradiation, with the ATM inhibitor KU55933 against without; legend of Fig. S7a not shown
Settings: partners not purified

T1 sequence (P14618 whole entry): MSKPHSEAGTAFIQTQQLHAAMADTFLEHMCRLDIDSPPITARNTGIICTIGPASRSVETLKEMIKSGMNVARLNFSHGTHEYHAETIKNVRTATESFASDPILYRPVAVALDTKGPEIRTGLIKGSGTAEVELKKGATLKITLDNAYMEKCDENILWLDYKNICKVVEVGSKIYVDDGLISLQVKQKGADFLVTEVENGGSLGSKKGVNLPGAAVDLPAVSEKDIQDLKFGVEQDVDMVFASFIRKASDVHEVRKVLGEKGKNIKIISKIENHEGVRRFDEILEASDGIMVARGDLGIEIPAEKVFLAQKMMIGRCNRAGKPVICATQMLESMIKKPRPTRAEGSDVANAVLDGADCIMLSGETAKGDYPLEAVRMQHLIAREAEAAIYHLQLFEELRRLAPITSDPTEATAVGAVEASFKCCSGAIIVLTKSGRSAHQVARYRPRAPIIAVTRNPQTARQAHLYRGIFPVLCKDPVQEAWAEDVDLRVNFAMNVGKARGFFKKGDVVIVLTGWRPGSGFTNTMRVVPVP

fold reduction of the association by KU55933 after irradiation: > 2.5 fold
B1: CtBP-interacting protein (natural protein, human (endogenous in U87), UniProt Q99708 1-897, looked up)
chain: MNISGSSCGSPNSADTSSDFKDLWTKLKECHDREVQGLQVKVTKLKQERILDAQRLEEFFTKNQQLREQQKVLHETIKVLEDRLRAGLCDRCAVTEEHMRKKQQEFENIRQQNLKLITELMNERNTLQEENKKLSEQLQQKIENDQQHQAAELECEEDVIPDSPITAFSFSGVNRLRRKENPHVRYIEQTHTKLEHSVCANEMRKVSKSSTHPQHNPNENEILVADTYDQSQSPMAKAHGTSSYTPDKSSFNLATVVAETLGLGVQEESETQGPMSPLGDELYHCLEGNHKKQPFEESTRNTEDSLRFSDSTSKTPPQEELPTRVSSPVFGATSSIKSGLDLNTSLSPSLLQPGKKKHLKTLPFSNTCISRLEKTRSKSEDSALFTHHSLGSEVNKIIIQSSNKQILINKNISESLGEQNRTEYGKDSNTDKHLEPLKSLGGRTSKRKKTEEESEHEVSCPQASFDKENAFPFPMDNQFSMNGDCVMDKPLDLSDRFSAIQRQEKSQGSETSKNKFRQVTLYEALKTIPKGFSSSRKASDGNCTLPKDSPGEPCSQECIILQPLNKCSPDNKPSLQIKEENAVFKIPLRPRESLETENVLDDIKSAGSHEPIKIQTRSDHGGCELASVLQLNPCRTGKIKSLQNNQDVSFENIQWSIDPGADLSQYKMDVTVIDTKDGSQSKLGGETVDMDCTLVSETVLLKMKKQEQKGEKSSNEERKMNDSLEDMFDRTTHEEYESCLADSFSQAADEEEELSTATKKLHTHGDKQDKVKQKAFVEPYFKGDERETSLQNFPHIEVVRKKEERRKLLGHTCKECEIYYADMPAEEREKKLASCSRHRFRYIPPNTPENFWEVGFPSTQTCMERGYIKEDLDPCPRPKRRQPYNAIFSPKGKEQKT
notes: also called CtIP; source: endogenous, U87 lysate
